# Molecular target: MdWRKY71 (Malus x domestica, UniProt A0A7S5AU16 1-327)
# Experiment: EMSA; LightShift Chemiluminescent EMSA Kit per manufacturer; buffer, salt, pH and temperature not stated
# Details: protein: recombinant; tags: His (pET32a); label: biotin
# Chain of MdWRKY71 (A0A7S5AU16 entry or part of it): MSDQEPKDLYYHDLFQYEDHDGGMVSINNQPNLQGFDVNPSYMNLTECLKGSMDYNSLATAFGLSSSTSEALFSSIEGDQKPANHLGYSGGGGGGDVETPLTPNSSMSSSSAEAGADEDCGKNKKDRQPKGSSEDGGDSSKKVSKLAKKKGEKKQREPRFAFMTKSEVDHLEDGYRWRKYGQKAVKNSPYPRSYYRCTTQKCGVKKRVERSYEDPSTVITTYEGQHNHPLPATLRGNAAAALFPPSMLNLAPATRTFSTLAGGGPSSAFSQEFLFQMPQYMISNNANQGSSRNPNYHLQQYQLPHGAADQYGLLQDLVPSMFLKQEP
row,Binder,binding result
1,ProMdDFR W-box probe (dsDNA) DNA 1: TGGGACTCTTCATTGACTCTCCGCCACATC DNA 2: GATGTGGCGGAGAGTCAATGAAGAGTCCCA,binds
2,ProMdMADS1 W-box2 mutant probe (dsDNA) DNA 1: ATTTACTATTTTTAGCATTACAATTT DNA 2: AAATTGTAATGCTAAAAATAGTAAAT,no binding
3,ProMdMADS1 W-box3 mutant probe (dsDNA) DNA 1: CCTGAGGTTATTAACGCCAAAAGAAAA DNA 2: TTTTCTTTTGGCGTTAATAACCTCAGG,no binding
4,ProMdMADS1 W-box1 mutant probe (dsDNA) DNA 1: ACTTTGTGGCTTTAGCATTTTGAAGA DNA 2: TCTTCAAAATGCTAAAGCCACAAAGT,no binding
5,ProMdANS W-box probe (dsDNA) DNA 1: ATCCCAGATGTGTTGACTGTTCATGCTCAG DNA 2: CTGAGCATGAACAGTCAACACATCTGGGAT,binds

# — publication PMC11789342, “5-Aminolevulinic acid activates the MdWRKY71-MdMADS1 module to enhance anthocyanin biosynthesis in apple”
